The values that follow come from patent US20180282403A1, “AGENTS FOR REDUCING THE ACTIVITY OF GDF15” (GENAGON THERAPEUTICS AB, priority 2015, published 2018).

Common to all, as to type: cell-based
One test deals with T1, QRFPR (Homo sapiens, UniProt Q96P65).
T1 construct: endogenous in cells
T1 sequence (Q96P65 1-431): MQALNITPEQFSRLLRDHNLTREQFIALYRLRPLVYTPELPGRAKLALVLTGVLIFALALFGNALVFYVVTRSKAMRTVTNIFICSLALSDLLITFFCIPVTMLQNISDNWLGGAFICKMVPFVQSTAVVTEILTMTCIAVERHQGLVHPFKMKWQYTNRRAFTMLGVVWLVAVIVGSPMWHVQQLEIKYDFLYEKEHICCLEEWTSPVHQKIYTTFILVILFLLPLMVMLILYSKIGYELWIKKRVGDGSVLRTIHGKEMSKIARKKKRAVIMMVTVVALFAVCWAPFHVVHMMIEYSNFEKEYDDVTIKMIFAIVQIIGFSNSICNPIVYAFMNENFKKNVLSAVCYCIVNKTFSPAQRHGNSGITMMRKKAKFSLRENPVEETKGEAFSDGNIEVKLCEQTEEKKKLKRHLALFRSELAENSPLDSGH
Put plainly: In situ PLA detection of CD9-QRFPR proximity. The conditions noted are these: GDF15 30 minutes; FIG. 4. An excerpt:
The tetraspanin CD9 has dual roles, both in endosome trafficking and in exosome secretion (Mazurov et al.). An in situ PLA assay was developed to detect the proximity of CD9 and QRFPR using antibodies against CD9 and QRFPR. In the absence of GDF15, only a low signal level is observed (FIGS. 4A and 4C).

The next test has as its system SMAD2. Briefly: Detection of phosphorylated SMAD2 in NK-92 cells. The conditions noted are these: GDF15 40 min. How it is done:
GDF15 has been reported in the literature to mediate downstream signalling resembling both the canonical (SMAD) pathway mediated by ALK5(TGFBRI) kinase domain, and non-canonical TGFβ receptor signalling, such as phosphorylation of GSK3b. In order to investigate if CLPTM1 was involved in this we developed a set of in situ PLA assays to determine the dynamics between CLPTM1 and the TGFβ receptors and components downstream of the TGFβ receptors. NK-92 cells were treated with GDF15 for 40 min to detect phosphorylated SMAD proteins such as SMAD2 in the nucleus. […] From previous experiments with TGFB1 stimulation we know that the assay (pSMAD2) was functional.

Test [1] has as its target T2, CLPTM1 (Homo sapiens, UniProt O96005).
T2 construct: endogenous in cells; host or cells: NK-92 cells
T2 sequence (O96005 1-669): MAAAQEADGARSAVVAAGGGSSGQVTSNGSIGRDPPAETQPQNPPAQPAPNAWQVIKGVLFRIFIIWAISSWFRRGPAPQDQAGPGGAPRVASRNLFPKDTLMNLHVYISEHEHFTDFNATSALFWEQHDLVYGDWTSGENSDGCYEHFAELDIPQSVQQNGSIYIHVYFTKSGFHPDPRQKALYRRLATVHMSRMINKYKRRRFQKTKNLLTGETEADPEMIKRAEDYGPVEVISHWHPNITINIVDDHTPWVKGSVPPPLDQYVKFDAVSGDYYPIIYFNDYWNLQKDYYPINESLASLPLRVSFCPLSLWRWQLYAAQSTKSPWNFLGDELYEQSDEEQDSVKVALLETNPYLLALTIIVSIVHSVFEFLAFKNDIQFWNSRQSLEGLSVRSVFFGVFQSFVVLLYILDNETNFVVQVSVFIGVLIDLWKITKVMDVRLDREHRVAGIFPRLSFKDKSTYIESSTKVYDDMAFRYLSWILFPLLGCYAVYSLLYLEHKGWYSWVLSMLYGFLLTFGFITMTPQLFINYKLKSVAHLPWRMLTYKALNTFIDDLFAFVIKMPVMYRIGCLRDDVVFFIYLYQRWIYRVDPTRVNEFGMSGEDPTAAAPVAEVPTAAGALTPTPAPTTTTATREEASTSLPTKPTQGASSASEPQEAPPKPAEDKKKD
Briefly: In situ PLA detection of the CLPTM1-TGFBRII complex in NK cells. The conditions noted are these: GDF15 treatment; FIG. 15. An excerpt: It was not known whether TGFBRI localised with CLPTM1 independently from the corresponding Type II receptor TGFBRII, or whether the TGFBRI-TGFBRII heterocomplex associated with CLPTM1 upon GDF15 stimulation. In order to determine this, a second in situ PLA assay was developed, using antibodies towards TGFBRII in concert with CLPTM1 antibodies from another species. […] (FIG. 15)

The target in test [2] is T2, CLPTM1. Put plainly: Detection of phosphorylated GSK3b (9/21) in NK-92 cells (in situ PLA, Western blot). The conditions noted are these: GDF15 in the presence of control antibody, FIG. 16. Here is the method:
A-C) In situ PLA detection of phosphorylated GSK3b (GSK3b-p(9/21) using a pair of proximity probes A) Negative control cells with no added GDF15. B) Cells after exposure to GDF15 and control antibody. C) Cells after exposure to GDF15 following pre-incubation with a monoclonal antibody targeting the extracellular domain of CLPTM1 D) Western Blot indicating the levels of phosphorylated GSKb (p-GSKb). Lane 1—No GDF15. Lane 2—GDF15 stim+ ctrl ab. Lane 3 GDF15 stim+ mAb mouse (antibody used in in situ PLA experiment).
The effect of antibodies binding CLPTM1 on inhibiting GDF15 induced downstream signalling through the TGFB heterotetrameric complex was assessed by detecting phosphorylated GSK3b-pGSK3b(9/21) in an in situ PLA assay. Phosphorylation of GSK3b is known to cause immunosuppressive effects i.e. suppress immune cell function.
(In western blotting, separated proteins are transferred to a membrane and probed.)

Consider “GDF15: Growth and differentiation factor 15, from mammalian source or recombinant from E. coli (Abcam, Biovision)”, for which the CD9-QRFPR complex signal result with QRFPR is “higher level of signal”. Besides, the “c-terminal phosphorylated SMAD 2” value with SMAD2 was “failed to detect c-terminal phosphorylated SMAD 2”. For the same substance, the “CLPTM1 proximity to TGFBRII” value with CLPTM1 [1] was “induced CLPTM1 proximity to TGFBRII”. In the test with CLPTM1 [2], the “9/21 phosphorylation of GSK3b” value was “induces 9/21 phosphorylation of GSK3b”.
